According to patent US6645498:

Key:
[1] = target: bovine serum albumin (bovine) (UniProt P02769); assay: ELISA, BSA coated at 5 µg/ml, antibody at 10 µg/ml
[2] = target: native GA733-2 antigen (human) (UniProt P16422); assay: ELISA, antigen coated at 5 µg/ml, antibody at 10 µg/ml
[3] = target: secreted recombinant GA733-2E antigen (human) (UniProt P16422); assay: as above

Sequence of UniProt P02769 (P02769 25-607 limits assumed): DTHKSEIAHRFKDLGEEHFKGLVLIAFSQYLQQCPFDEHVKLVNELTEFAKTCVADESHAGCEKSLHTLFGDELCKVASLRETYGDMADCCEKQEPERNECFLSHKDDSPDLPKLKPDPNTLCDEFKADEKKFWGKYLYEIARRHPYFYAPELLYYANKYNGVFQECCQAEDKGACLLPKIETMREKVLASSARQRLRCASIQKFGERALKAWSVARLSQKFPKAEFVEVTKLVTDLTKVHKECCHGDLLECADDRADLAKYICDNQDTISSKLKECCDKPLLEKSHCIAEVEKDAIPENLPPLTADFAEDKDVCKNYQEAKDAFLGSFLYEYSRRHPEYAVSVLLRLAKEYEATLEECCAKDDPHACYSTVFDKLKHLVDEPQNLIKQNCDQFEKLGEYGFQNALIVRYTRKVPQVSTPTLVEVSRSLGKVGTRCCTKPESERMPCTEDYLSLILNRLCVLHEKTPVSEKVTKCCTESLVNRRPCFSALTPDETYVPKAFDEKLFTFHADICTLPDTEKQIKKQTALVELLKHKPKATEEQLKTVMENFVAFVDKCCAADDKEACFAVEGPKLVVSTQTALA

Row | Maximal optical density (at 405 nm) [1] [OD 405 nm] | Maximal optical density (at 405 nm) [2] [OD 405 nm] | Maximal optical density (at 405 nm) [3] [OD 405 nm] | Substance
1 | 0 | 0 | 0 | Normal mouse IgG (antibody)
2 | 0.02 | 0.86 | 1.3 | murine mAb GA733 (antibody)
